Measured values taken from patent publication US20080286803A1 (NEDERLANDSE ORGANISATIE VOOR TOEGEPAST …, published 2008).

Target: wild-type pro-urokinase (natural activation site Pro-Arg-Phe-Lys-Ile-Ile-Gly-Gly) (human, UniProt P00749 21-431)
Assay: cell-based or functional assay

absorbance change at 405 nm (activation of pro-urokinase, read with pyro-Glu-Gly-Arg-pNA): ~2 fold
B1: purified recombinant MASP-2 (active form) (enzyme, UniProt O00187 16-686, looked up)
chain: TPLGPKWPEPVFGRLASPGFPGEYANDQERRWTLTAPPGYRLRLYFTHFDLELSHLCEYDFVKLSSGAKVLATLCGQESTDTERAPGKDTFYSLGSSLDITFRSDYSNEKPFTGFEAFYAAEDIDECQVAPGEAPTCDHHCHNHLGGFYCSCRAGYVLHRNKRTCSALCSGQVFTQRSGELSSPEYPRPYPKLSSCTYSISLEEGFSVILDFVESFDVETHPETLCPYDFLKIQTDREEHGPFCGKTLPHRIETKSNTVTITFVTDESGDHTGWKIHYTSTAQPCPYPMAPPNGHVSPVQAKYILKDSFSIFCETGYELLQGHLPLKSFTAVCQKDGSWDRPMPACSIVDCGPPDDLPSGRVEYITGPGVTTYKAVIQYSCEETFYTMKVNDGKYVCEADGFWTSSKGEKSLPVCEPVCGLSARTTGGRIYGGQKAKPGDFPWQVLILGGTTAAGALLYDNWVLTAAHAVYEQKHDASALDIRMGTLKRLSPHYTQAWSEAVFIHEGYTHDAGFDNDIALIKLNNKVVINSNITPICLPRKEAESFMRTDDIGTASGWGLTQRGFLARNLMYVDIPIVDHQKCTAAYEKPPYPRGSVTANMLCAGLESGGKDSCRGDSGGALVFLDSETERWFVGGIVSWGSMNCGEAGQYGVYTKVINYIPWIENIISDF
